Assay: label from the status in PepcDB records

Sequence | protein production
MLQMRTDLMAVACGRRSADLYIENGRVLNVHSGEILSGVGVAVASGRVAYVGPSRGMIGPETQFLDAEGGILVPGYVDPHAHFDNILSPRRLAEALLPLGTTMVVNDTLAVVARFGAPGLACLRAAATSLPLHFGWTVPISGWAPELEEAGYFAGLGLTDAELDVLLADETVLGTSEFLPWRRLLAGDQRLIARLDIARRHGKCCEGHNPGARADHLQVIAAAGLTDCHEALTSAEALNRLRAGLYVVLRHGPARYDLPELASLVMKEGVDRSRLMLTPDWVPPNDLAAFGHMDHPLSAAMEAGIPPLDAYRMASLNPARYFRIEGQIGSIAPGRYADILCLNDLREPRPKWVMAQGAVVARNGVPTPDWHGLDELELPAYRPSVLHASPADFRVASAGTGDVLVPAIEIMDRTVTRRIDLHLPVKDGVVSCAGEEGRVMKMAMPHPEGGFSIGFLVGVGGCLGAMSNSLASEPYHTLVIGTSDDDMAIAYNRMIELGGGVVTVQDGRIEAQLPLPLGGFMTKASAADVGAGIDAVNQWARNNGSNLENAFLTQHFLTYVGVPFFRMTPWGIYDVRKHCFLPPILNQGSEEDAL | failed
MLQQQRTNSRGEKYVIGPTGAPLTLADLPPAETQRWVIRRKAEVVAAVRGGLLSLDEACDRYKLTNDEFLSWQQSIDRHGLAGLRTTRIQQYRLEHHHHHH | not failed
MLQSINQLNPDIVVITGDLTENGFSAEYDGVKMFIDRIECKNRVLVPGNHDSKNAGYLHFEDLFENRFQTRNLGNMTIVGADSSQPDIDDGHLGRENYGWIKEAFSGENFKVFALHHHLVPIPLAGRENTVLVDAGDVLDLLNKCRVNLVLCGHCHIPHVWNLNNMLVVNAGTFCSSKTRGKTTQCFNLIQAENSEKNGNGESEKIEDGGWKVRVSRVFPQGNIEFITETVMLEHHHHHH | failed
MLQVPKLTIIMPVYNTAQYLPRAFDALLKQIDKSFKLIVVDDGSTDNSVEVAQNYAYRFPYFKLIKKKNGGPSDARNVGMQYIDTPYVTFHDGDDWVDPGYTSFFIRAFEEHPDVNLVSCGYWMDYPDKKSRVVGRPEGGFLTRGETYLKLTNVFGSPMKGYSWNKAYKTAIIKKFHLQFDRDISLLEDQIFNVKYISVAKGVYYTQRPYYHYWQRKGSIIHQPNVKKVADNFRGNYRVWRRIIKTMLKDHEDEKMRKKLDRSPLRDSDVQ | failed
MLRASLLCSSTSITFTPIQLFNPNSSHRFPRFELSRPVSALSRTKCHLSLLRARGKSSFLTRSTATDEAVETSSNSGLDLVEVGFLSGVHGLQGEICIKPNTDFPDLRFSKPGRRWLKQQLLGQDKIDEVELVEGRPHPAQKSWILKFRGLDDVDQVRQLVGATLLAEDDDRPELDEGEFYSRDLVGMRVLLKETGQLVGTVANIFDNGGNDLLHVLLDSSMEVCNGNAKTNQLVWIPFVDAIVPDVDLERKEMYITPPKGLLEVNMRADDRSKKERRQLEWKERKKQQKRLIAAKKKLCEMEQKHVFDGLRFGEKSQRNLLADHILNVNSTLLQKALQSIDTSSKRWNVTEEINALRARVSECNLSVSRECLSFDASKENMGDNFSFLQQGQNLFSEGKVSICLVLNDHENEEPEGENGVVSYLHALLDEEQRFIKEEDRACVPLVIVSPEHTIEALQKLFQDNDHFGFESEKIWILKEETLPVVCSSPEEPKKHKILMKSPWEILESPVGSGGVLSILASHGTTDSLSTLGINYLQVHSIETKPQPSQHYINPMLVGFVSARGAEIGIQVTEESELKNLEMTFSMKFLKRLKGKIEFEAVMKMNSHVQNVEKEWVESVPSEPNSFEFRSDIYRVLSECSSSAKICLMNITV | failed
MLRCSHSKGVNYINFSATGKLLVSVGVDPEHTITVWRWQEGTKVASRGGHLERIFVVEFRPDSDTQFVSVGVKHMKFWTLAGSALLYKKGVIGSMEAARMQTMLSVAFGANNLTFTGAINGDVYVWKEHFLIRLVAKAHTGPVFTMYTTLRDGLIVTGGKERPTKEGGAVKLWDQEMKRCRAFQLETGQLVECVRSVCRGKGKILVGTKDGEIIEVGEKSAASNILIDGHMEGEIWGLATHPSKDMFISASNDGTARIWDLADKKLLNKVNLGHAARCAAYSPDGEMVAIGMKNGEFIILLVNSLKVWGKKRDRKSAIQDIRISPDNRFLAVGSSEHTVDFYDLTQGTSLNRIGYCKDIPSFVIQMDFSADSKYIQVSTGAYKRQVHEVPLGKQVTEAMVIEKITWASWTSVLGDEVIGIWPRNADKADVNCACVTHDGLNIVTGDDFGLVKLFDFPCTEKFAKHKRYFGHSAHVTNIRFSYDDKYVVSTGGDDCSVFVWRCL | failed
MLRIFQGRPAVTIAAVLVAASVAGCAGKAKKPTLVYEERPVELLYSTGADRLDRGNWNEAVDYFREVERQHPYSEWSRRSILMTGYAHYMGNQYAEAIGDADRFISLYPGNPSAQYAFYLKAICYFEQIVDVNRDQAATEQALAALRDVVQRYPNTEYATDARLKIDMVNDQLAGKEMAIGRWYLKNGQTLAAIGRFKAVIERHQTTSHTPEALFRLVEAYLTIGLNEEAKRNGAVLGYNFPGDRWYVDAYRLLNDNGLRPAVEPLKAGAKRNALERILSKDKEATLAPPGERKAKKGLLGPLGM | failed
MLRLSAPGQLDDDLCLLGDVQVPVFLLRLGEASWALVEGGISRDAELVWADLCRWVADPSQVHYWLITHKHYDHCGLLPYLCPRLPNVQVLASERTCQAWKSESAVRVVERLNRQLLRAEQRLPEACAWDALPVRAVADGEWLELGPRHRLQVIEAHGHSDDHVVFYDVRRRRLFCGDALGEFDEAEGVWRPLVFDDMEAYLESLERLQRLPTLLQLIPGHGGLLRGRLAADGAESAYTECLRLCRRLLWRQSMGESLDELSEELHRAWGGQSVDFLPGELHLGSMRRMLEILSRQALPLD | failed
MLRNKAFVVRLYPNAAQAERINRTLGCARFVYNHFLARRIESYRQDGKGMIYAATDKALTLLKREEGTAWLAEVDKFALQQSLRDLERAYQNFFRTAKKSGKKVGFPKFKKKRTGEAYRTQFTNNNIEIGEGKLKLPKLGWVKTRGQRDMQGKILNVTVRRIHEGHYEASVLCEVEIPYLPAAPKFAAGVDVGIKDFAIVTDGKGEFEHHANPKYYRSSLRRLRKAQKTLSRRKKGSARYGRAKTTLARIHKRVANKRQDFIHKLTTSLVREYEITCTEHLKPDNMRKNRRLALSVSDAGWGEFIRQLEYKATWYGRLVSKISPYFPSSQICHDCGFKNPAVKNLAVREWTCPNCGETHDRDENAALNIRREGLVAAGMSDTQNAHGDCIRPTSVGSGLRSENHATSVVLEHHHHHH | not failed
MLRQIRRNALSNFLSLWNEAATTSLGFFWMALWAFILGYVISSLIQVLVTRRKMQQAMGEDGPRSIALGTFFGFISSSCSFSALATTRAIFNKGAGLAPSLAFMLASTNLVIELGIVIAVFLGWQFVVGEYVGGVLLILVTWLLIRLTRPRRLEAQARRKMDDGDGDGGNSDKSWKEKITSKEGWQAIAQTYVMEWQMVWKDVLIGFTVAGIISAMVPQSFFEALFIGAGGENAANPGFLAVLSQTLVGPIAAFFTFIGSMGNIPLAAVLFAQGVSFAGVMAFIFSDLVVLPVLRINASYYGWKMALYILALMLVGIVTVSLLMHYSLALLGMLPDFSGQTSMGEREFFKWNYQAVLNILFLTATAILLWFWRQGQKQHSHDHHHHDHDHGGSSLTDKVLSVLVVVALLWLAGGVVVPLF | failed
MLRSSAAAGKGGRILAAKQVNPTRMELTRLKKKRITAIRGHKLLKDKRDELMRQYLDLVRENMEVRKKVEAGIRSANKNFVIAKAGMSEAALNTALMAPKQEVNLEAGEKNVMSVDIPTFQYKTRTADENDIYSYGFAFTSGDLDGAVKSLADVLPDMIRLAECEKACQLMAAEIEKTRRRVNALEHVIIPETEQSIKYITMKLDENERSTQIRLMKVKDMMLEETHHYSEK | failed
MLRVVSLTLVTLISAVAAAAAEPQAGDDLAICRDRQAELQARAQACDNLLNADRLAGKDKAIALSVRGNTLINKRDYARAIETLSMAVDLDPDNVIVLNLRGLAYERSGKDDLAMADYNLALQKRPTYGVPYNNRGVIHLRRGALQSALDDFNLSIKYTPKFLLGWTNRARVRTLMKDFDGAIADFAEAEKIDPAAPQIAGNRCITWGMMGKYDQAFADCNGLIEKQPKNVYAINNRADVSMMKGDLDAALKDYNSAIQINPNNVRAHSGRGQIYERRKDLAQARADYRAAAYSLTKFDELDVARARAVAQERLAALTPQAPAGATGRRVALVIGNGAYKNVHALPNPPRDSKLIANALRDVGFQTVISVSDLTRDKFFEALQTFAAEAEKADWAVVYYAGHGFEIGGVNYLVPVDAKLAADRDAEAQAVALEQVIAAVGAARKVRLVMLDACRDNPFAPTMQRTLSLKLVDKGFSNIEPGAGFMVVYAAKHGETAMDGDGGTDSPFATALAREIKEPRVEIRKLFDIVRDDVWSATRHEQQPFTYGSPPGREDFYFAAGK | failed
MLRYHMQGFSGYGVQYSPFFDNRLAVAAGSNFGLVGNGKLFILEIDRSGRIVEVNSFLTQDCLFDLAWNESHENQVLVAQGDGTLRLFDTTFKEFPIAIFKEHEREVFSCNWNLVNRQNFLSSSWDGSIKIWSPLRKQSLMTLTPRPLEITKMVDPLNAIILKKKSFTGISKNRNCVYQAQFSPHDQNLVLSCSGNSYASLFDIRLPSGKNQNNFLVHSGLEALTCDFNKYRPYVVATGGVDNAIRIWDIRMLNKNESATIKRTVPGQLHNSSCINEIPNAHGLAIRKVTWSPHHSNILMSASYDMTCRIWRDLSNDGAKETYKTNSTDATKGSIFNFTQHSEFVFGADWSLWGKPGYVASTAWDGNLFVWNGLG | failed
MLRYSFRSIKRNFASSLLLVGALVAIFVASPLSFSMLSSIQAEVDANIKQYARGSYDLLIRPIGTQTAVETTLGVVEENYLALGEGGISLNEWETIKALDGVEVAAPVASLGYFAGETHTVAVEFPNNSSFIEGRFQTSDGLHTYPLQAGGSYYVLEQEGYYYGYEYVQQGNEEIPGSGGPPFFSMPVTYHLIVGIDQQEEEKLTGFNFSALNNSIPEGFRFYFDLDVERHIKIIYLKDATTPLTVQVDVAPIDWETADTERLKDELGLTYDEPLFISEQFPSLFTQFQDRHIGPIETYTFDLSEHMPPFSYDPVSLDYDGSMHEPIENAYGVSESSRFYQASPIDYDIQAGGRLKVKQVGDYEGIPIYRTIQEQGGAAYELHGIGKIPFLLYPVGHFTTAEYEHSLSASPLGIYQQAPSVLSDGTMLHETIAPGSFVNAPAHGLMALEDAAFIKGDAPIDAIRIRVAGITAYDQEAVDKMSQVATEIAKLGDYQIDVIAGASPAPMTMDVEGIGEVVQPWTSLGAAATIRDGWNGTNVLIAGLFLFVSISYLANRFHFRRHTKKEEQELLLDLGWKKRHIRWLYLMENSSLIFLSAAIASLILLAYIWLYQADWFILIFFVAVVVLTFLFSLIYVSMMRGVQKISFRRLKGQTVWIRNLFYYRRLLTLSIIQLASVALLLAFVVSSIAATIAQTGGTYLGVYINDAVFIPLVSIMVAALFLAVLTVGESTSAFLLLRKEELQTLRDIGWRIKDVHRLCLKESAVWTTGAIMGGVVISLLTVSVFYSLSLSFLLFAGVAVVLLSSIAIVTAGGMIRSSLRKMA | failed
MLSERAAQMVIFSALIKHKNFTVAAKSLGVSVSHVSKQLSQLEESLGIKLVQRTTRSFTPTEAGKTFYHHCEQVVQAVSSATLEMESQRDEVAGLVRLGLSQSFGTLHIIPAIQELRELYPQLQVEVHLFDYKVDMLAEGLDLWVTNNEHLPEGYIAQRLTDCQFVVAASPDYLLKYDTPTEPNDLSLHNCLIYRSWERDYTGWAFTKGQQELNVKVSGNYSVDLAEAVRDAAIAGWGIAYLATYLLGDEFRTGKLIQLLPDWKASQSMPFYAVYPSRQHMPKKISAVINFIKQKIGNPCHWDQRLAPYISIPK | failed
MLSHHPSLHFLSKLSTLSLQRNQEKQALVEELEERIELLNRLETTLSKTLNCFPEELVTFLKNNDSVTSLAEFAAECNVDPLRDTQTELLIAASQKLERWWQVEKLVEEEKKRNYEAEKLLKDFEAFKKDLETVITGFKAEQSSATQASVDQEKKALEKLKKAFESYEANSSCQPVDVTHEEVVELGKKVTLLEAQVIEEQLQLDTYQMLPQDPVLARIVLDEAKEKLKEFSAERDSILRNMKFV | failed

— a protein production outcome set (Wang et al. 2014)
